First the molecules themselves.
B1: Ankyrin repeat and SAM domain-containing protein 6, residues 774 to 836; numbered along this chain, Q68DC2 (parent)
chain: DEDELTGILKKLSLEKYQPIFEEQEVDMEAFLTLTDGDLKELGIKTDGSRQQILAAISELNAG

± gives the uncertainty stated by the source.

This series covers variants of B1. Put plainly: abundance fitness (aPCA) (normalised: wild type 0, dead -1); higher = more abundant; growth selection in yeast, the domain comes from the species named. Particulars: Homo sapiens.
Regarding DEDELTGILKKLSLEKSQPIFEEQEVDMEAFLTLTDGDLKELGIKTDGSRQQILAAISELNAG [Y17S], the abundance fitness is -0.49 ± 0.059.

As to DEDELTGILKKLSLEKYNPIFEEQEVDMEAFLTLTDGDLKELGIKTDGSRQQILAAISELNAG [Q18N], the abundance fitness was -0.538 ± 0.5.

On to DEDELTGILKKLSLEKYDPIFEEQEVDMEAFLTLTDGDLKELGIKTDGSRQQILAAISELNAG [Q18D], for which the abundance fitness was -0.344 ± 0.17.

On to DEDELTGILKKLSLEKYLPIFEEQEVDMEAFLTLTDGDLKELGIKTDGSRQQILAAISELNAG [Q18L], for which the abundance fitness was -0.092 ± 0.052.

Consider DEDELTGKLKKLSLEKYQPIFEEQEVDMEAFLTLTDGDLKELGIKTDGSRQQILAAISELNAG [I8K], for which the abundance fitness was -0.162 ± 0.044.

As for DEDELTGFLKKLSLEKYQPIFEEQEVDMEAFLTLTDGDLKELGIKTDGSRQQILAAISELNAG [I8F], the abundance fitness is -0.131 ± 0.16.

As to DEDELTGILKKLSLEKYQPIFEEQEVDQEAFLTLTDGDLKELGIKTDGSRQQILAAISELNAG [M28Q], the abundance fitness was -0.29 ± 0.073.

Consider DEDELTGILKKLSLEKYQPIFEEQEVDAEAFLTLTDGDLKELGIKTDGSRQQILAAISELNAG [M28A], for which the abundance fitness was -0.055 ± 0.056.

Regarding DEDELTGILKKLSLEKYQPIFEEQEVDMEAFLTLTDGDLKELGIKTHGSRQQILAAISELNAG [D47H], the abundance fitness stood at 0.042 ± 0.074.

As for DEDELTGILKKLSLEKYQPIFEEQEVDMEAFLTLTDGDLKELGIKTLGSRQQILAAISELNAG [D47L], the abundance fitness was -0.089 ± 0.042.

In the case of DEDELTMILKKLSLEKYQPIFEEQEVDMEAFLTLTDGDLKELGIKTDGSRQQILAAISELNAG [G7M], the abundance fitness turned out to be 0.199 ± 0.073.

For the variant DEDELTGILKKLSLEKYQVIFEEQEVDMEAFLTLTDGDLKELGIKTDGSRQQILAAISELNAG [P19V], the abundance fitness was -0.346 ± 0.055.

Take DEDELTGILKKLSLEKYQIIFEEQEVDMEAFLTLTDGDLKELGIKTDGSRQQILAAISELNAG [P19I]: the abundance fitness was -0.509 ± 0.05.

Take DEDELTGILKKLSLEKYQLIFEEQEVDMEAFLTLTDGDLKELGIKTDGSRQQILAAISELNAG [P19L]: the abundance fitness is -0.456 ± 0.072.

Regarding DEFELTGILKKLSLEKYQPIFEEQEVDMEAFLTLTDGDLKELGIKTDGSRQQILAAISELNAG [D3F], the abundance fitness was found to be 0.084 ± 0.12.

For the variant DEVELTGILKKLSLEKYQPIFEEQEVDMEAFLTLTDGDLKELGIKTDGSRQQILAAISELNAG [D3V], the abundance fitness is -0.267 ± 0.078.

As for DEHELTGILKKLSLEKYQPIFEEQEVDMEAFLTLTDGDLKELGIKTDGSRQQILAAISELNAG [D3H], the abundance fitness turned out to be 0.2 ± 0.063.

Turning to DEDELTGILKKLSLEKYQPIFEEQESDMEAFLTLTDGDLKELGIKTDGSRQQILAAISELNAG [V26S], the abundance fitness was -0.649 ± 0.052.

For the variant DEDELTGILKKLSLEKYQPIFEEQELDMEAFLTLTDGDLKELGIKTDGSRQQILAAISELNAG [V26L], the abundance fitness was -0.145 ± 0.038.

Consider DEDELTGILKKLSLEKYQPIFEEQEYDMEAFLTLTDGDLKELGIKTDGSRQQILAAISELNAG [V26Y], for which the abundance fitness was -0.327 ± 0.099.

On to DEDELTGILKKLSLEKYQPIFEEQEVDMEAFLTLTDGDLKELGIKTDGSRQQIFAAISELNAG [L54F], for which the abundance fitness is -0.757 ± 0.093.

Regarding DEDELTGILKKLSLEKYQPIFEEQEVDMEAFLTLTDGDLKELGIKTDGSRQQIIAAISELNAG [L54I], the abundance fitness was -0.133 ± 0.063.

For DEDELTGILKKLSLEKYQPIFEEQEVDMEAFLTLVDGDLKELGIKTDGSRQQILAAISELNAG [T35V], the abundance fitness is -0.687 ± 0.045.

For DEDELTGILKKLSLEKYQPIFEEQEVDMEAFLTLEDGDLKELGIKTDGSRQQILAAISELNAG [T35E], the abundance fitness was -0.067 ± 0.048.

As for DEDELTGILKKLSLEKYQPIFEEQEVDMEAILTLTDGDLKELGIKTDGSRQQILAAISELNAG [F31I], the abundance fitness is -0.343 ± 0.058.

Regarding DEDELTGILKKLSLEKYQPIFEEQAVDMEAFLTLTDGDLKELGIKTDGSRQQILAAISELNAG [E25A], the abundance fitness is 0.023 ± 0.11.

Turning to DEDELTGILKKLSLEKYQPIFEEQTVDMEAFLTLTDGDLKELGIKTDGSRQQILAAISELNAG [E25T], the abundance fitness is -0.412 ± 0.082.

As to DEDELTGILKKLSLEKYQPIFEEQYVDMEAFLTLTDGDLKELGIKTDGSRQQILAAISELNAG [E25Y], the abundance fitness was -0.262 ± 0.05.

For DEDELTGILKKLSLEKYQPIFEEQWVDMEAFLTLTDGDLKELGIKTDGSRQQILAAISELNAG [E25W], the abundance fitness is -0.449 ± 0.17.

For DEDELTGILHKLSLEKYQPIFEEQEVDMEAFLTLTDGDLKELGIKTDGSRQQILAAISELNAG [K10H], the abundance fitness is -0.406 ± 0.066.

With DEDELTGILKKLSLEKYQPIFEEQEVDMEAFLTLTDGDLKELGIKSDGSRQQILAAISELNAG [T46S], the abundance fitness came out at 0.017 ± 0.041.

With DEDELTGILKKLSLEKYQPIFEEQEVDMEAFLTLTDGDLKELGIKWDGSRQQILAAISELNAG [T46W], the abundance fitness is -0.521 ± 0.086.

As for DEDELTGILKKLSLEKYQPIFEEQEVDMEAFLWLTDGDLKELGIKTDGSRQQILAAISELNAG [T33W], the abundance fitness is -0.49 ± 0.055.

Consider DEDELTGILKKLSLEKYQPIFEEQEVDMEAFLELTDGDLKELGIKTDGSRQQILAAISELNAG [T33E], for which the abundance fitness was -0.032 ± 0.095.

On to DEDELTGILKKLSLEKYQPIFEEQEVDMEAFLMLTDGDLKELGIKTDGSRQQILAAISELNAG [T33M], for which the abundance fitness was -0.048 ± 0.098.

For DEDELTGILKKLSLEKYQPIFEEQEVDMEAFLYLTDGDLKELGIKTDGSRQQILAAISELNAG [T33Y], the abundance fitness was -0.496 ± 0.13.

As for DEDELTGILKKLSLEKYQPIFEEQEVDMMAFLTLTDGDLKELGIKTDGSRQQILAAISELNAG [E29M], the abundance fitness is -0.318 ± 0.075.

Regarding DEDELTGILKKLSLEKYQPIFEEQEVDMHAFLTLTDGDLKELGIKTDGSRQQILAAISELNAG [E29H], the abundance fitness is -0.356 ± 0.13.

For the variant DEDELTGILKKLSLEKYQPIFEEQEVPMEAFLTLTDGDLKELGIKTDGSRQQILAAISELNAG [D27P], the abundance fitness is -0.483 ± 0.054.

On to DEDELTGILKKLSLEKYQPIFEEQEVDMEAFLTLTDGDLKELGIKTDGSRQQCLAAISELNAG [I53C], for which the abundance fitness is -0.404 ± 0.071.

Consider DEDELTGILKKLSLEKYQPIFEEQEVDMEAFLTLTDGDLKELGIKTDGSRQQPLAAISELNAG [I53P], for which the abundance fitness is -0.44 ± 0.055.

As for DEDELTGILKKLSLEKYQPIFEEQEVDMEAFLTLTDGDLKELGIKTDGSRQQILQAISELNAG [A55Q], the abundance fitness is -0.022 ± 0.068.

The values are drawn from the Human Domainome abundance scans (Beltran et al. 2025).
